Experimental findings from patent publication US12269859B2, “Synthetic immune receptors and methods of use thereof” (Angeles Therapeutics, Inc., priority 2016, dated 2025) are described below.

The assay relates to target antigen-expressing cell line. The assay is described as follows: Jurkat NFAT-GFP assay, coculture with target cell lines expressing the respective target antigen (summary Table 10A). The following applies: relative % GFP positive cells; for NFAT-GFP ASSAY Positive Cell lines: NALM6: SIR-expressing Jurkat-NFAT-GFP cells cocultured with NALM6; for NFAT-GFP ASSAY Positive Cell lines: RAJI: SIR-expressing Jurkat-NFAT-GFP cells cocultured with RAJI. More on the design: key: The signs +/−, +, 2+ etc. after the name of the cell lines indicate the relative degree of positivity on the Jurkat-NFAT-GFP assay as measured by the % GFP positive cells; +: relative degree of positivity on the Jurkat-NFAT-GFP assay as measured by the % GFP positive cells; 2+: relative degree of positivity on the Jurkat-NFAT-GFP assay as measured by the % GFP positive cells. It is filed as cell-based, human. The essentials:
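Coculture of SIR-bearing Jurkat NFAT-GFP reporters with target cells, ~1:2 E:T, ~4–18 h. FACS quantified % GFP+ cells, ranked semi-quantitatively against parental Jurkat-NFAT-GFP.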

B1: 022817-J01 (protein)
chain: MALPVTALLLPLALLLHAARPLEGKPIPNPLLGLDSTGSGEDLKNVFPPEVAVFEPSKAEIAHTQKATLVCLATGFYPDHVELSWWVNGKEVHSGVCTDPQPLKEQPALNDSRYCLSSRLRVSATFWQNPRNHFRCQVQFYGLSENDEWTQDRAKPVTQIVSAEAWGRADCGITSASYHQGVLSATILYEILLGKATLYAVLVSALVLMAMVKRKDSRGRAKRSGSGATNFSLLKQAGDVEENPGPTSMALPVTALLLPLALLLHAARPQIVLTQSPATLSASPGEKATMTCSASSGVNYMHWYQQKPGTSPKRWIYDTDKTASGVPARFSGSGSGTSYSLTISSMEAEDAATYYCHQRGSYTFGGGTKLEIKGGGGSGGGGSGGGGSQVQLEQPGAEVVKPGASVKVSCKTSGYTFTSNWMHWVKQTPGKGLEWIGEIDPSDSYTNYNQKFDGKAKLTVDKSSSTAYMEVSDLTAEDSATYYCARGSNPYYYAMDYWGQGTSVTVSSTREQKLISEEDGSGIQNPDPAVYQLRDSKSSDKSVCLFTDFDSQTNVSQSKDSDVYITDKCVLDMRSMDFKSNSAVAWSNKSDFACANAFNNSIIPEDTFFPSSDVPCDVKLVEKSFETDTNLNFQNLSVIGFRILLLKVAGFNLLMTLRLWSSRAKRSGSGVKQTLNFDLLKLAGDVESNPGPSRGHMTEYKPTVRLATRDDVPRAVRTLAAAFADYPATRHTVDPDRHIERVTELQELFLTRVGLDIGKVWVADDGAAVAVWTTPESVEAGAVFAEIGPRMAELSGSRLAAQQQMEGLLAPHRPKEPAWFLATVGVSPDHQGKGLGSAVVLPGVEAAERAGVPAFLETSAPRNLPFYERLGFTVTADVEVPEGPRTWCMTRKPGA
On to B1, for which the “NFAT-GFP ASSAY Positive Cell lines: NALM6” value is “(+/−)” and the “NFAT-GFP ASSAY Positive Cell lines: RAJI” value was “RAJI (+), NALM6”.

B2: 032216-C04 (protein)
chain: MALPVTALLLPLALLLHAARPDIVLTQSPATLSLSPGDRATISCRASESVTILGSHLIYWYQQKPGQPPRLLIQLASNVQTGVPARFSGSGSRTDFTLTISSVEPEDFAVYYCLQSRTIPRTFGQGTKLEIKRLEGKPIPNPLLGLDSTGSGEDLKNVFPPEVAVFEPSKAEIAHTQKATLVCLATGFYPDHVELSWWVNGKEVHSGVCTDPQPLKEQPALNDSRYCLSSRLRVSATFWQNPRNHFRCQVQFYGLSENDEWTQDRAKPVTQIVSAEAWGRADCGITSASYHQGVLSATILYEILLGKATLYAVLVSALVLMAMVKRKDSRGRAKRSGSGATNFSLLKQAGDVEENPGPTSMDWIWRILFLVGAATGAHSFEQVQLVQSGPEVKKPGESVKISCKASGYTFRHYSMNWVKQAPGQGLKWMGRINTESGVPIYADDFKGRFSFTVDTSASTAYLEISSLTSEDTAVYFCSNDYLYSLDFWGQGTTLTVSSTREQKLISEEDGSGIQNPDPAVYQLRDSKSSDKSVCLFTDFDSQTNVSQSKDSDVYITDKCVLDMRSMDFKSNSAVAWSNKSDFACANAFNNSIIPEDTFFPSSDVPCDVKLVEKSFETDTNLNFQNLSVIGFRILLLKVAGFNLLMTLRLWSSRAKRSGSGVKQTLNFDLLKLAGDVESNPGPSRGHMTEYKPTVRLATRDDVPRAVRTLAAAFADYPATRHTVDPDRHIERVTELQELFLTRVGLDIGKVWVADDGAAVAVWTTPESVEAGAVFAEIGPRMAELSGSRLAAQQQMEGLLAPHRPKEPAWFLATVGVSPDHQGKGLGSAVVLPGVEAAERAGVPAFLETSAPRNLPFYERLGFTVTADVEVPEGPRTWCMTRKPGA
modifications: Polynucleotide encoding a Synthetic Immune Receptor (SIR)
As for B2, the “NFAT-GFP ASSAY Positive Cell lines: RAJI” value is reported as 2+.

B3: 022817-K08 (protein)
chain: MALPVTALLLPLALLLHAARPQIVLTQSPATLSASPGEKATMTCSASSGVNYMHWYQQKPGTSPKRWIYDTDKTASGVPARFSGSGSGTSYSLTISSMEAEDAATYYCHQRGSYTFGGGTKLEIKLEEQKLISEEDLGSGEDLKNVFPPEVAVFEPSKAEIAHTQKATLVCLATGFYPDHVELSWWVNGKEVHSGVCTDPQPLKEQPALNDSRYCLSSRLRVSATFWQNPRNHFRCQVQFYGLSENDEWTQDRAKPVTQIVSAEAWGRADCGITSASYHQGVLSATILYEILLGKATLYAVLVSALVLMAMVKRKDSRGRAKRSGSGATNFSLLKQAGDVEENPGPTSMDWIWRILFLVGAATGAHSFEQVQLEQPGAEVVKPGASVKVSCKTSGYTFTSNWMHWVKQTPGKGLEWIGEIDPSDSYTNYNQKFDGKAKLTVDKSSSTAYMEVSDLTAEDSATYYCARGSNPYYYAMDYWGQGTSVTVSSTREQKLISEEDLGSGIQNPDPAVYQLRDSKSSDKSVCLFTDFDSQTNVSQSKDSDVYITDKCVLDMRSMDFKSNSAVAWSNKSDFACANAFNNSIIPEDTFFPSSDVPCDVKLVEKSFETDTNLNFQNLSVIGFRILLLKVAGFNLLMTLRLWSSRAKRSGSGVKQTLNFDLLKLAGDVESNPGPSRGHMTEYKPTVRLATRDDVPRAVRTLAAAFADYPATRHTVDPDRHIERVTELQELFLTRVGLDIGKVWVADDGAAVAVWTTPESVEAGAVFAEIGPRMAELSGSRLAAQQQMEGLLAPHRPKEPAWFLATVGVSPDHQGKGLGSAVVLPGVEAAERAGVPAFLETSAPRNLPFYERLGFTVTADVEVPEGPRTWCMTRKPGA
On to B3, for which the “NFAT-GFP ASSAY Positive Cell lines: NALM6” value is reported as “(+/−)” and the “NFAT-GFP ASSAY Positive Cell lines: RAJI” value is on record as “RAJI (+), NALM6”.

B4: 110217-A03 (protein)
chain: MALPVTALLLPLALLLHAARPDVVMTQSPSSLSASVGDRVTITCRASQDISKYLNWYQQKPGKAPKLLIYHTSRLHSGVPSRFSGSGSGTDFTLTISSLQPEDFATYYCQQGNTLPYTFGGGTKVEIKLEDLKNVFPPEVAVFCPSEAEISHTQKATLVCLATGFYPDHVELSWWVNGKEVHSGVSTDPQPLKEQPALNDSRYCLSSRLRVSATFWQNPRNHFRCQVQFYGLSENDEWTQDRAKPVTQIVSAEAWGRADCGFTSESYQQGVLSATILYEILLGKATLYAVLVSALVLMAMVKRKDSRGRAKRSGSGATNFSLLKQAGDVEENPGPTSMDWIWRILFLVGAATGAHSFEQVQLQESGPGLVKPSQTLSLTCTVSGVSLPDYGVSWIRQPPGKGLEWIGVIWGSETTYYNSALKSRVLISVDTSKNQVSLKLSSVTAADTAVYYCARHYYYGGSYAMDYWGQGTTVTVSSTRIQNPDPAVYQLRDCKSSDKSVCLFTDFDSQTNVSQSKDSDVYITDKTVLDMRSMDFKSNSAVAWSNKSDFACANAFNNSIIPEDTFFPSPESSCDVKLVEKSFETDTNLNFQNLSVIGFRILLLKVAGFNLLMTLRLWSS
For B4, the “NFAT-GFP ASSAY Positive Cell lines: NALM6” value is “(+/−)” and the “NFAT-GFP ASSAY Positive Cell lines: RAJI” value was “RAJI (+/−), NALM6”.

B5: 070517-H02 (protein)
chain: MALPVTALLLPLALLLHAARPLEGKPIPNPLLGLDSTGSGEDLKNVFPPEVAVFEPSKAEIAHTQKATLVCLATGFYPDHVELSWWVNGKEVHSGVCTDPQPLKEQPALNDSRYCLSSRLRVSATFWQNPRNHFRCQVQFYGLSENDEWTQDRAKPVTQIVSAEAWGRADCGITSASYHQGVLSATILYEILLGKATLYAVLVSALVLMAMVKRKDSRGRAKRSGSGATNFSLLKQAGDVEENPGPTSMALPVTALLLPLALLLHAARPDIQMTQSPSSLSASVGDRVTITCKASDHINNWLAWYQQKPGQAPKLLIYGATTLETGVPSRFSGSGSGTDYTLTISSLQPEDFATYYCQQSWNTPWTFGQGTKLEIKRGGGGSGGGGSGGGGSQVQLQQPGAELVKPGASVKMSCKASGYAFSSYWINWMKQKPGQGLEWIGQIYPGDGDTNYNGKFKGRATLTADTSSSTAYMQLSSLTSEDSAVYFCARSITTVVGCAMDYWGQGTSVTVSSTREQKLISEEDGSGIQNPDPAVYQLRDSKSSDKSVCLFTDFDSQTNVSQSKDSDVYITDKCVLDMRSMDFKSNSAVAWSNKSDFACANAFNNSIIPEDTFFPSSDVPCDVKLVEKSFETDTNLNFQNLSVIGFRILLLKVAGFNLLMTLRLWSSRAKRSGSGVKQTLNFDLLKLAGDVESNPGPSRGHMTEYKPTVRLATRDDVPRAVRTLAAAFADYPATRHTVDPDRHIERVTELQELFLTRVGLDIGKVWVADDGAAVAVWTTPESVEAGAVFAEIGPRMAELSGSRLAAQQQMEGLLAPHRPKEPAWFLATVGVSPDHQGKGLGSAVVLPGVEAAERAGVPAFLETSAPRNLPFYERLGFTVTADVEVPEGPRTWCMTRKPGA
As for B5, the “NFAT-GFP ASSAY Positive Cell lines: NALM6” value is recorded as “(+)” and the “NFAT-GFP ASSAY Positive Cell lines: RAJI” value is listed as “RAJI (2+), NALM6”.
